We go through 6 molecules from patent US12410262B2, “Peptide conjugates of cytotoxins as therapeutics” (Cybrexa 2, Inc., priority 2019, dated 2025).

What is called IC50 is the concentration that gives 50% inhibition. The low end stands for higher potency, the high end for lower potency.

One data set concerns HCT116. Put plainly: cells. In kind it is cell-based, human. The note with it: 96 h. The method, then: Cells were plated in 96 well black walled-clear bottom plates (Griener), DLD-1 WT cells at 2500 cells per well, FaDu, and HeLa cells at 5000 cells per well, and HCT116 at 3000 cells per well, in growth media containing 10% FBS. Cells were allowed to adhere at room temperature for 60 minutes before returning to a 37 C, 5% CO2 incubator. After 24 hours, media was removed and replaced with fresh growth media containing various drug concentrations. Each drug concentration was added in triplicate. Non-drug treated controls contained growth media only. Cells were returned to the incubator. Ninety-six hours after addition of drug, cells were fixed with 4% paraformaldehyde for 20 minutes and stained with Hoechst at 1 ug/mL. The plates were imaged on a Cytation 5 auto imager (BioTek) and cells were counted using CellProfiler (http://cellprofiler.org). The percent cell growth delay was calculated and data plotted using GraphPad Prism

Data set [1] is described as follows: Glutathione cleavage study. It counts as in vitro ADME. The note with it: Tris buffer with 10 mM glutathione, Glutathione Challenge (10 mM), 100 μM conjugate, Tris pH 7.5, 37° C. The method, then: A 20 mM stock of conjugate was prepared in 100% DMSO. The stocks were subsequently diluted in 100 mM Tris, pH 7.5, to yield an intermediate dilution of 500 μM followed by an additional dilution of 1:5 in 100 mM Tris, pH 7.5 to give a final concentration of 100 μM of conjugate. 100 mM glutathione was prepared immediately prior to use in H2O and diluted 1:10 in challenge samples for a final glutathione challenge concentration of 10 mM. Samples were mixed by inversion and incubated at 37° C. for up to 24 hrs. […]
Samples were thawed and extracted as follows: 8 μL of 25% phosphoric acid followed by 117 μL of 100% acetonitrile/0.1% TFA were added to each sample, mixed and centrifuged at 13000×G for 10 minutes. The supernatant was pipetted into 0.2 mL HPLC vials and placed on a Perkin Elmer Flexar HPLC autosampler. The following table summarizes HPLC conditions:
Data was analyzed by calculating the percentage reduction of compound (area of retention time peak of […] conjugate/area of retention time peak of conjugate at time 0)×100.

A further data set is described as follows: Plasma stability studies. It counts as in vitro ADME. The note with it: rat plasma, 100 μM conjugate, 37° C. The procedure: A 20 mM stock of conjugate was prepared in 100% DMSO. The stocks were subsequently diluted in 100 mM Tris, pH 7.5 to yield an intermediate dilution of 500 μM and then diluted 1:5 directly into rat plasma to yield a final concentration of 100 μM of conjugate. Samples were mixed by inversion and incubated at 37° C. for up to 24 h. 50 μL samples were aliquoted into siliconized microfuge tubes at time 0, 4, and 24 h and immediately frozen at −80° C.
Samples were thawed and extracted as follows: 8 μL of 25% phosphoric acid followed by 117 μL of 100% Acetonitrile/0.1% TFA was added to each sample, mixed and centrifuged at 13000×G for 10 minutes. The supernatant was pipetted into 0.2 mL HPLC vials and placed on a Perkin Elmer Flexar HPLC autosampler. The following table summarizes HPLC conditions:
Data was analyzed by calculating the percentage reduction of compound (area of retention time peak of incubated conjugate/area of retention time peak of conjugate at time 0)×100.

Each structure is given as a SMILES string.

`CC[C@@]1(O)C(=O)OCc2c1cc1n(c2=O)Cc2c-1nc1cc(F)c(C)c3c1c2[C@@H](NC(=O)O[C@H]1COC[C@@H]1SSC[C@H](NC(=O)[C@H](Cc1c[nH]c2ccccc12)NC(=O)[C@H](CC(C)C)NC(=O)[C@H](CC(C)C)NC(=O)[C@H](CC(=O)O)NC(=O)[C@H](CC(C)C)NC(=O)[C@H](CC(C)C)NC(=O)[C@H](CC(C)C)NC(=O)[C@@H](NC(=O)[C@H](CC(=O)O)NC(=O)[C@@H](NC(=O)[C@@H]1CCCN1C(=O)[C@H](Cc1ccccc1)NC(=O)[C@H](CC(C)C)NC(=O)[C@H](CC(C)C)NC(=O)[C@H](CC(=O)O)NC(=O)[C@H](CC(C)C)NC(=O)[C@H](Cc1ccc(O)cc1)NC(=O)[C@H](C)NC(=O)[C@H](CCCNC(=N)N)NC(=O)[C@H](Cc1c[nH]c2ccccc12)NC(=O)[C@@H]1CCCN1C(=O)[C@H](CC(N)=O)NC(=O)[C@H](CCC(N)=O)NC(=O)[C@H](CC(=O)O)NC(=O)[C@H](CC(=O)O)NC(=O)[C@H](C)N)[C@@H](C)O)[C@@H](C)O)C(=O)NCC(=O)O)CC3` [Compound 17] yielded an IC50 with HCT116 of 0.7 nM. In addition, in data set [1], the fraction remaining at 4 h, 100 µM is 3.4% and the share remaining at 24 h, 100 µM came to 1.7%. In addition, in the data set “Plasma stability studies”, the amount remaining at 4 h, 100 µM worked out at 107% and the amount remaining at 24 h, 100 µM worked out at 105%.

`CC[C@@]1(O)C(=O)OCc2c1cc1n(c2=O)Cc2c-1nc1cc(F)c(C)c3c1c2[C@@H](NC(=O)O[C@H]1Cc2ccccc2C[C@@H]1SSC[C@H](NC(=O)[C@H](Cc1c[nH]c2ccccc12)NC(=O)[C@H](CC(C)C)NC(=O)[C@H](CC(C)C)NC(=O)[C@H](CC(=O)O)NC(=O)[C@H](CC(C)C)NC(=O)[C@H](CC(C)C)NC(=O)[C@H](CC(C)C)NC(=O)[C@@H](NC(=O)[C@H](CC(=O)O)NC(=O)[C@@H](NC(=O)[C@@H]1CCCN1C(=O)[C@H](Cc1ccccc1)NC(=O)[C@H](CC(C)C)NC(=O)[C@H](CC(C)C)NC(=O)[C@H](CC(=O)O)NC(=O)[C@H](CC(C)C)NC(=O)[C@H](Cc1ccc(O)cc1)NC(=O)[C@H](C)NC(=O)[C@H](CCCNC(=N)N)NC(=O)[C@H](Cc1c[nH]c2ccccc12)NC(=O)[C@@H]1CCCN1C(=O)[C@H](CC(N)=O)NC(=O)[C@H](CCC(N)=O)NC(=O)[C@H](CC(=O)O)NC(=O)[C@H](CC(=O)O)NC(=O)[C@H](C)N)[C@@H](C)O)[C@@H](C)O)C(=O)NCC(=O)O)CC3` [Compound 18]: the IC50 in the data set with HCT116 came out at 2.9 nM. For the same molecule, the share remaining at 4 h, 100 µM is 60.1% in data set [1] and 104% in the data set “Plasma stability studies”. Besides, the share remaining at 24 h, 100 µM in data set [1] amounted to 13%; in the data set “Plasma stability studies”, 93%.

`CC[C@@]1(O)C(=O)OCc2c1cc1n(c2=O)Cc2c-1nc1cc(F)c(C)c3c1c2[C@@H](NC(=O)O[C@@H]1COCC[C@H]1SSC[C@H](NC(=O)[C@H](Cc1c[nH]c2ccccc12)NC(=O)[C@H](CC(C)C)NC(=O)[C@H](CC(C)C)NC(=O)[C@H](CC(=O)O)NC(=O)[C@H](CC(C)C)NC(=O)[C@H](CC(C)C)NC(=O)[C@H](CC(C)C)NC(=O)[C@@H](NC(=O)[C@H](CC(=O)O)NC(=O)[C@@H](NC(=O)[C@@H]1CCCN1C(=O)[C@H](Cc1ccccc1)NC(=O)[C@H](CC(C)C)NC(=O)[C@H](CC(C)C)NC(=O)[C@H](CC(=O)O)NC(=O)[C@H](CC(C)C)NC(=O)[C@H](Cc1ccc(O)cc1)NC(=O)[C@H](C)NC(=O)[C@H](CCCNC(=N)N)NC(=O)[C@H](Cc1c[nH]c2ccccc12)NC(=O)[C@@H]1CCCN1C(=O)[C@H](CC(N)=O)NC(=O)[C@H](CCC(N)=O)NC(=O)[C@H](CC(=O)O)NC(=O)[C@H](CC(=O)O)NC(=O)[C@H](C)N)[C@@H](C)O)[C@@H](C)O)C(=O)NCC(=O)O)CC3` [Compound 20]: in the data set with HCT116, 7.9 nM corresponded to half-maximal inhibition (IC50). Besides, the fraction remaining at 4 h, 100 µM amounted to 5.2% in data set [1] and 98.7% in the data set “Plasma stability studies”. The values for the share remaining at 24 h, 100 µM (in data set [1]; in “Plasma stability studies”) were 8% and 95.8%, respectively.

For `CC[C@@]1(O)C(=O)OCc2c1cc1n(c2=O)Cc2c-1nc1cc(F)c(C)c3c1c2[C@@H](NC(=O)O[C@H]1COCC[C@@H]1SSC[C@H](NC(=O)[C@H](Cc1c[nH]c2ccccc12)NC(=O)[C@H](CC(C)C)NC(=O)[C@H](CC(C)C)NC(=O)[C@H](CC(=O)O)NC(=O)[C@H](CC(C)C)NC(=O)[C@H](CC(C)C)NC(=O)[C@H](CC(C)C)NC(=O)[C@@H](NC(=O)[C@H](CC(=O)O)NC(=O)[C@@H](NC(=O)[C@@H]1CCCN1C(=O)[C@H](Cc1ccccc1)NC(=O)[C@H](CC(C)C)NC(=O)[C@H](CC(C)C)NC(=O)[C@H](CC(=O)O)NC(=O)[C@H](CC(C)C)NC(=O)[C@H](Cc1ccc(O)cc1)NC(=O)[C@H](C)NC(=O)[C@H](CCCNC(=N)N)NC(=O)[C@H](Cc1c[nH]c2ccccc12)NC(=O)[C@@H]1CCCN1C(=O)[C@H](CC(N)=O)NC(=O)[C@H](CCC(N)=O)NC(=O)[C@H](CC(=O)O)NC(=O)[C@H](CC(=O)O)NC(=O)[C@H](C)N)[C@@H](C)O)[C@@H](C)O)C(=O)NCC(=O)O)CC3` [Compound 21], inhibition in the data set with HCT116 was half-maximal at 3.1 nM (IC50). In addition, in data set [1], the share remaining at 4 h, 100 µM was 9.5% and the fraction remaining at 24 h, 100 µM worked out at 12.6%. Further, in the data set “Plasma stability studies”, the amount remaining at 4 h, 100 µM worked out at 101% and the share remaining at 24 h, 100 µM was 98.2%.

In the data set with HCT116, `CC[C@@]1(O)C(=O)OCc2c1cc1n(c2=O)Cc2c-1nc1cc(F)c(C)c3c1c2[C@@H](NC(=O)O[C@@H]1CCCCC[C@H]1SSC[C@H](NC(=O)[C@H](Cc1c[nH]c2ccccc12)NC(=O)[C@H](CC(C)C)NC(=O)[C@H](CC(C)C)NC(=O)[C@H](CC(=O)O)NC(=O)[C@H](CC(C)C)NC(=O)[C@H](CC(C)C)NC(=O)[C@H](CC(C)C)NC(=O)[C@@H](NC(=O)[C@H](CC(=O)O)NC(=O)[C@@H](NC(=O)[C@@H]1CCCN1C(=O)[C@H](Cc1ccccc1)NC(=O)[C@H](CC(C)C)NC(=O)[C@H](CC(C)C)NC(=O)[C@H](CC(=O)O)NC(=O)[C@H](CC(C)C)NC(=O)[C@H](Cc1ccc(O)cc1)NC(=O)[C@H](C)NC(=O)[C@H](CCCNC(=N)N)NC(=O)[C@H](Cc1c[nH]c2ccccc12)NC(=O)[C@@H]1CCCN1C(=O)[C@H](CC(N)=O)NC(=O)[C@H](CCC(N)=O)NC(=O)[C@H](CC(=O)O)NC(=O)[C@H](CC(=O)O)NC(=O)[C@H](C)N)[C@@H](C)O)[C@@H](C)O)C(=O)NCC(=O)O)CC3` [Compound 22] returned an IC50 of 5.9 nM. For the same molecule, in data set [1], the fraction remaining at 4 h, 100 µM came to 65.8% and the amount remaining at 24 h, 100 µM turned out to be 12.3%. In the data set “Plasma stability studies”, the fraction remaining at 4 h, 100 µM is 106% and the share remaining at 24 h, 100 µM is 105%.

With `CC[C@@]1(O)C(=O)OCc2c1cc1n(c2=O)Cc2c-1nc1cc(F)c(C)c3c1c2[C@@H](NC(=O)O[C@H]1CCCCC[C@@H]1SSC[C@H](NC(=O)[C@H](Cc1c[nH]c2ccccc12)NC(=O)[C@H](CC(C)C)NC(=O)[C@H](CC(C)C)NC(=O)[C@H](CC(=O)O)NC(=O)[C@H](CC(C)C)NC(=O)[C@H](CC(C)C)NC(=O)[C@H](CC(C)C)NC(=O)[C@@H](NC(=O)[C@H](CC(=O)O)NC(=O)[C@@H](NC(=O)[C@@H]1CCCN1C(=O)[C@H](Cc1ccccc1)NC(=O)[C@H](CC(C)C)NC(=O)[C@H](CC(C)C)NC(=O)[C@H](CC(=O)O)NC(=O)[C@H](CC(C)C)NC(=O)[C@H](Cc1ccc(O)cc1)NC(=O)[C@H](C)NC(=O)[C@H](CCCNC(=N)N)NC(=O)[C@H](Cc1c[nH]c2ccccc12)NC(=O)[C@@H]1CCCN1C(=O)[C@H](CC(N)=O)NC(=O)[C@H](CCC(N)=O)NC(=O)[C@H](CC(=O)O)NC(=O)[C@H](CC(=O)O)NC(=O)[C@H](C)N)[C@@H](C)O)[C@@H](C)O)C(=O)NCC(=O)O)CC3` [Compound 23], the IC50 with HCT116 turned out to be 11.9 nM. The share remaining at 4 h, 100 µM in data set [1] was found to be 61.4%; in the data set “Plasma stability studies”, 92%. Further, the amount remaining at 24 h, 100 µM came to 13.2% in data set [1] and 92% in “Plasma stability studies”.
